Here are results for 84 variants from the RNAGym collection of RNA variant scans (doi:10.1093/molbev/msab373).

B1: Azoarcus group I ribozyme (parent)
chain: GUGCCUUGCGCCGGGAAACCACGCAAGGGAUGGUGUCAAAUUCGGCGAAACCUAAGCGCCCGCCCGGGCGUAUGGCAACGCCGAGCCAAGCUUCGGCGCCUGCGCCGAUGAAGGUGUAGAGACUAGACGGCACCCACCUAAGGCAAACGCUAUGGUGAAGGCAUAGUCCAGGGAGUGGCGAAAGUCACACAAACCGG

In this series the parent is B1. In words: reverse-splicing fitness (ratio to wild type); higher = more active; in vitro selection; Mg2+ level not given. The method in brief: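 An in vitro group I ribozyme library with randomized positions was T7-transcribed and gel-purified. In triplicate, 10 pmol RNA in EPPS pH 7.5 was reacted with 50 pmoles of a 30-nt RNA substrate for 1 h at 37 °C across several added MgCl2 levels (1–48 mM), then stopped with EDTA. Products were reverse transcribed from a substrate-complementary primer, PCR-amplified and sequenced (HiSeq 4000). Fitness is a variant's read proportion after selection over that before, normalised to wild type.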
With C82G A111G A120U A145G C150G U176C, the reverse-splicing fitness amounted to 0.00834.
Under C82G A120C C150A U176G stands 0.0105.
Under C82U A111U C150G C169G stands 0.00698.
Consider C82U A145G C150U C169U U176A, for which the reverse-splicing fitness was 0.0142.
In the case of C82U A111G A120C A145G C169U U176C it was 0.0146.
Under C82G C150G C169G U176G stands 0.00511.
Under C82G C150G C169G U176C stands 0.00598; under C82U A111C A120G C150A C169G U176G, 0.00479; under C82U A111U A120C A145G C150G U176C, 0.0109.
A111C A120U U176C: the reverse-splicing fitness amounted to 0.257.
On to A111G A120C C150G C169U U176A, for which the reverse-splicing fitness was determined as 0.00767.
On to C82U A120C A145G C150G C169U U176G, for which the reverse-splicing fitness amounted to 0.00619.
For C82A A111G A120G A145G C150U C169G U176C, the reverse-splicing fitness was found to be 0.0176.
Under C82G A111U A145G C150U C169A U176G stands 0.00701; under C82G A111C A120U A145C C150A C169U U176C, 0.00331; under C82G A111G A120G A145C C169A U176G, 0.00415.
Under C82U A111C A120U C150U C169U stands 0.00505; under C82A A111C A120G C150G C169U, 0.00833.
As for A111G A120C A145C C169G U176C, the reverse-splicing fitness worked out at 0.00881.
Under C82G A111C A120U A145C C169G stands 0.00323; under C82G A111U A120G A145C C169U, 0.00836; under C82A A145C C150A C169A U176A, 0.0113.
In the case of C82A A111C A120C A145U U176A it was 0.0147; in that of C82U A111G A120U C150A C169A U176A, 0.00374.
Under C82A A111U A120U A145U C150A C169U U176G stands 0.00245; under C82A A111G C150A C169A U176A, 0.0203; under A111U A145G C150U C169U U176A, 0.025.
With A111U A120U A145G C150A C169U, the reverse-splicing fitness was 0.012.
Consider C82G A111C A120G C150G C169G U176G, for which the reverse-splicing fitness turned out to be 0.00467.
Under C82G A120C C150A C169A U176A stands 0.0216; under C82A A111C A120U A145C U176C, 0.00818; under C82A A145G C169G U176G, 0.00481.
Under C82A A120C A145G C150A C169A U176A stands 0.0224; under A145G C150U C169G U176C, 0.11.
Take C82G A111U A120C A145G C150G C169U U176C: the reverse-splicing fitness turned out to be 0.0123.
As to A120G C169G U176C, the reverse-splicing fitness came to 0.261.
Under C82A A111C A145C C150G C169U U176G stands 0.00706; under C82A A111U A120U A145C C150U C169A U176C, 0.00232.
In the case of A111C A120C A145U U176A it was 0.222.
Under C82G A111G A120U A145G C169U stands 0.00538.
Consider C82G A120C A145G C150G C169A U176C, for which the reverse-splicing fitness amounted to 0.0145.
In the case of C82U A111U A120C A145G C169U U176A it was 0.0163; in that of C82U A111U A120C A145G C169U U176G, 0.00475.
As to A111U A120G C150G C169U, the reverse-splicing fitness stood at 0.019.
For the variant C82G A111G A120C A145G C150G C169G U176C, the reverse-splicing fitness was 0.0112.
Turning to C82G A111C A120U A145U C150A U176A, the reverse-splicing fitness was found to be 0.00533.
Under C82U A111G A120U A145C C150U C169G U176G stands 0.00171; under C82U A111U A120U A145U C150U C169U U176C, 0.00392.
Under C82U A111U A120C C169U U176A stands 0.0196.
Under C82G A111G A120U A145U C150G U176A stands 0.00457.
As for C82A A111C A120C C150G C169A U176G, the reverse-splicing fitness came to 0.00778.
In the case of C82G A111G A120G A145G C169G U176C it was 0.0248; in that of C82G A120U A145C C150A C169G U176A, 0.0023; in that of A111C A120U C150G C169G, 0.00853.
Under C82U A120G A145C C169A U176C stands 0.00742; under C82G A111G A120G A145G C150U C169U U176G, 0.00668.
Under C82U A111C A120C A145G C150U U176A stands 0.0113.
Take C82G A111U A120C C150G C169G U176A: the reverse-splicing fitness is 0.00766.
Under A111U A120U A145C C150A C169U stands 0.00469; under A145G C169U U176C, 0.174; under C82G A111U A120U A145U C169U, 0.00419.
Under C82U A145U C150U C169A stands 0.00939; under C82G A120U C150G C169U U176C, 0.00347; under C82G A120U C150G C169U U176A, 0.00369.
For C82G A111C A120U A145U C150G U176A, the reverse-splicing fitness was found to be 0.00411.
In the case of C82U A111G A120G A145C C150G C169G it was 0.00713; in that of C82G C150U C169U U176C, 0.0159; in that of C82U A111G A120U A145C C150U C169A U176G, 0.00196.
In the case of C82U A120U A145U C150G C169A U176G it was 0.0021; in that of A111U A120C C169U U176C, 0.0473.
Under C82A A111C A120C A145U C150U C169A stands 0.00985; under C82A A111U A120G A145C C150U C169G U176A, 0.0224; under C82G A111G A120U A145G C169G U176C, 0.00531.
Consider A111C A120G A145G C150A C169G U176C, for which the reverse-splicing fitness amounted to 0.0342.
Under C82G A111U A120U C169G stands 0.00462.
In the case of C82A A111U A145C U176G it was 0.0253; in that of C82A A111C A120C C150G C169G U176C, 0.00606; in that of C82A A111C A120C C150G C169G U176G, 0.00646.
Consider C82G A111G A120C A145G C150A U176A, for which the reverse-splicing fitness stood at 0.0144.
As to C82U A111C A120C A145C C150U C169A, the reverse-splicing fitness was determined as 0.00742.
In the case of C82G A111C A120C C150U C169U U176G it was 0.00857.
A111C A120C A145G C150A C169G U176A: the reverse-splicing fitness came to 0.0148.
Under C82U A145C C150A C169A stands 0.00751.
Under A111G A120G C150A C169U U176C stands 0.0286.
